# Reference: publication PMC6321010, “Interaction of the GTPase Elongation Factor Like-1 with the Shwachman-Diamond Syndrome Protein and Its Missense Mutations” (International Journal of Molecular Sciences, 2018)
# Substitutions are numbered along the chain they refer to.
# T1: human SBDS R175W with C-terminal FlAsH tag, labelled with Lumio Green (human, UniProt Q9Y3A5 1-250, R175W, Lumio Green dye (4',5'-bis(1,3,2-dithioarsolan-2-yl) fluorescein) on the C-terminal FlAsH tag)
# T1 construct: Missense variant found in patients; source: E. coli C41 (pRSET plasmid), purified by conventional chromatographic techniques; not shown: FlAsH tag (Cys-Cys-Pro-Gly-Cys-Cys), C-terminal, kept
# T1 sequence (looked up): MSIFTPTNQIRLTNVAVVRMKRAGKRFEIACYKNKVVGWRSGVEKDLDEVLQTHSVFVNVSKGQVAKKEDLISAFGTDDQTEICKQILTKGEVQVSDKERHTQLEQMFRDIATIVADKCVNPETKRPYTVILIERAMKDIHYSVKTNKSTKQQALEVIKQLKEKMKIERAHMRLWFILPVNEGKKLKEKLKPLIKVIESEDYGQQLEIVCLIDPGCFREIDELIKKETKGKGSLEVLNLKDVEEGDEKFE
# T2: human SBDS R126T with C-terminal FlAsH tag, labelled with Lumio Green (human, UniProt Q9Y3A5 1-250, R126T, Lumio Green dye (4',5'-bis(1,3,2-dithioarsolan-2-yl) fluorescein) on the C-terminal FlAsH tag)
# T2 construct: human SBDS, SDS disease surface missense variant R126T (domain 2), in the three-domain protein; Missense variant found in patients; source: E. coli C41 (pRSET plasmid), purified by conventional chromatographic techniques; not shown: FlAsH tag (Cys-Cys-Pro-Gly-Cys-Cys), C-terminal, kept
# T2 sequence (looked up): T1 sequence (looked up) with R126T, W175R
# T3: human SBDS I167T with C-terminal FlAsH tag, labelled with Lumio Green (human, UniProt Q9Y3A5 1-250, I167T, Lumio Green dye (4',5'-bis(1,3,2-dithioarsolan-2-yl) fluorescein) on the C-terminal FlAsH tag)
# T3 construct: human SBDS, SDS disease surface missense variant I167T (domain 2), in the three-domain protein; Missense variant found in patients; source: E. coli C41 (pRSET plasmid), purified by conventional chromatographic techniques; not shown: FlAsH tag (Cys-Cys-Pro-Gly-Cys-Cys), C-terminal, kept
# T3 sequence (looked up): T1 sequence (looked up) with I167T, W175R
# B1: human Elongation Factor Like-1 (EFL1) (enzyme)
# chain: MVLNSLDKMIQLQKNTANIRNICVLAHVDHGKTTLADCLISSNGIISSRLAGKLRYMDSREDEQIRGITMKSSAISLHYATGNEEYLINLIDSPGHVDFSSEVSTAVRICDGCIIVVDAVEGVCPQTQAVLRQAWLENIRPVLVINKIDRLIVELKFTPQEAYSHLKNILEQINALTGTLFTSKVLEERAERETESQVNPNSEQGEQVYDWSTGLEDTDDSHLYFSPEQGNVVFTSAIDGWGFGIEHFARIYSQKIGIKKEVLMKTLWGDYYINMKAKKIMKGDQAKGKKPLFVQLILENIWSLYDAVLKKDKDKIDKIVTSLGLKIGAREARHSDPKVQINAICSQWLPISHAVLAMVCQKLPSPLDITAERVERLMCTGSQTFDSFPPETQALKAAFMKCGSEDTAPVIIFVSKMFAVDAKALPQNKPRPLTQEEIAQRRERARQRHAEKLAAAQGQAPLEPTQDGSAIETCPKGEEPRGDEQQVESMTPKPVLQEENNQESFIAFARVFSGVARRGKKIFVLGPKYSPLEFLRRVPLGFSAPPDGLPQVPHMAYCALENLYLLMGRELEYLEEVPPGNVLGIGGLQDFVLKSATLCSLPSCPPFIPLNFEATPIVRVAVEPKHPSEMPQLVKGMKLLNQADPCVQILIQETGEHVLVTAGEVHLQRCLDDLKERFAKIHISVSEPIIPFRETITKPPKVDMVNEEIGKQQKVAVIHQMKEDQSKIPEGIQVDSDGLITITTPNKLATLSVRAMPLPEEVTQILEENSDLIRSMEQLTSSLNEGENTHMIHQKTQEKIWEFKGKLEQHLTGRRWRNIVDQIWSFGPRKCGPNILVNKSEDFQNSVWTGPADKASKEASRYRDLGNSIVSGFQLATLSGPMCEEPLMGVCFVLEKWDLSKFEEQGASDLAKEGQEENETCSGGNENQELQDGCSEAFEKRTSQKGESPLTDCYGPFSGQLIATMKEACRYALQVKPQRLMAAMYTCDIMATGDVLGRVYAVLSKREGRVLQEEMKEGTDMFIIKAVLPVAESFGFADEIRKRTSGLASPQLVFSHWEIIPSDPFWVPTTEEEYLHFGEKADSENQARKYMNAVRKRKGLYVEEKIVEHAEKQRTLSKNK
# notes: human EFL1, GTPase, said to comprise 1120 residues; the expressed protein is fused to a TEV recognition site and a hexahistidine tag at the C-terminus; also called human EFL1; GTPase Elongation Factor Like-1; source: S. cerevisiae BCY123 (pRS426 backbone, GAL1/10 promoter), purified
# How the values were obtained:
# Assay in all cases: fluorescence polarisation; fluorescence anisotropy; 2 µL additions of 40-90 µM human EFL1 titrated into 300 µL of 0.1 µM Lumio Green-labelled human SBDS-FlAsH construct; 25 °C; 50 mM Tris-HCl pH 8, 300 mM NaCl, 5 mM β-mercaptoethanol; fitted to a single-site or a two different binding sites model
# Settings in all cases: both partners purified
# [1] = target: T1, human SBDS R175W with C-terminal FlAsH …
# [2] = target: T2, human SBDS R126T with C-terminal FlAsH …
# [3] = target: T3, human SBDS I167T with C-terminal FlAsH …
binder,measurement,setting,value
B1,"Kd1 (first binding site, two different binding sites model)",[1],12 ± 4 µM
same,"Kd2 (second binding site, two different binding sites model)",[1],3.3 ± 0.6 µM
same,"Kd1 (first binding site, two different binding sites model)",[2],9.3 ± 1.7 µM
same,"Kd2 (second binding site, two different binding sites model)",[2],2.5 ± 0.2 µM
same,"Kd1 (first binding site, two different binding sites model)",[3],10 ± 3 µM
same,"Kd2 (second binding site, two different binding sites model)",[3],1.4 ± 0.2 µM
